Measured values: patent US20250269048A1 (BIVICTRIX, published 2025)

Legend:
human CD7 [1] = molecular target: T1, human CD7 (human, UniProt P09564 26-180, limits assumed); assay: SPR
T1 construct: The construct is not described
T1 sequence (looked up): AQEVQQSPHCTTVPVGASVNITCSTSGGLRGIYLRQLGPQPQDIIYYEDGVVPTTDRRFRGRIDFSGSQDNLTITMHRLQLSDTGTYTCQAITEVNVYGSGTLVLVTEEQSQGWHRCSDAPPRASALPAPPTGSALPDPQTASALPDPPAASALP

human CD7 [2] = molecular target: T1, human CD7; assay: SPR; reference 7-AA-WT
human CD7 on cells [3] = molecular target: T2, human CD7 on cells (human, UniProt P09564 26-240); assay: FACS; cells not named
T2 construct: whole, on cells; Target of the FACS and cell capture values and of the kill assays on CD7 single positive cells; also called CD7+ cells; Jurkat (CD33-/CD7+)
T2 sequence (looked up): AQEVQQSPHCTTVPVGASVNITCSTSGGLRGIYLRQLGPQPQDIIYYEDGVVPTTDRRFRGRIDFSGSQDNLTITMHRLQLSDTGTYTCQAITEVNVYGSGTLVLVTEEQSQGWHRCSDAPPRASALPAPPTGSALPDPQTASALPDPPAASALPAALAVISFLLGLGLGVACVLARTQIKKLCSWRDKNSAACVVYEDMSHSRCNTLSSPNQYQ

human CD7 on cells [4] = molecular target: T2, human CD7 on cells; assay: FACS; reference 7-PP-1 WT (itself)

- Kd (human CD7 [1]): 3.56 nM
- Fold Reduction in binding affinity compared to WT (Kd) (human CD7 [2]): 1.36 fold
- FACS binding (human CD7 on cells [3]): 0.53
- FACS fold reduction compared to PP WT (human CD7 on cells [4]): 1 fold
B1: CD7-PP-1-WT CD7 binding arm (Fab, V domains shown)
VH: QVQLQESGAELVKPGASVKLSCKASGYTFTSYWMHWVKQRPGQGLEWIGKINPSNGRTNYNEKFKSKATLTVDKSSSTAYMQLSSLTSEDSAVYYCARGGVYYDLYYYALDYWGQGTTVTVSS
VL: DIELTQSPATLSVTPGDSVSLSCRASQSISNNLHWYQQKSHESPRLLIKSASQSISGIPSRFSGSGSGTDFTLSINSVETEDFGMYFCQQSNSWPYTFGGGTKLEIKR
notes: also called PP WT
